Patent US11130794B2, “Bifunctional compounds” (Novo Nordisk A/S, priority 2017, dated 2021)

Target: T1, hPCSK9 (Homo sapiens, UniProt Q8NBP7)
T1 construct: purchased Sino Biologicals, China
Assay: C6 hPCSK9 challenge model, LDL-R expression in mouse liver (Western blot)
Type: in vivo
Details: healthy control 100%, hPCSK9 alone 0%
Description: Sixty minutes after the injection of hPCSK9, the animals are anaesthetised in isoflurane and euthanised by cervical dislocation. The liver is then quickly excised and snapfrozen in liquid nitrogen. The livers are kept at −80° C. until analysis.
The proteins are transferred to nitrocellulose membranes (iBlot 2 NC Regular stacks, novex #IB23001) according to manufacturer's instructions (Life Technology). Equal protein transfer is confirmed by Ponceau S (Sigma, P7170) staining of the membranes and the membranes are further blocked in blocking buffer (TBS-T, 2% Tween). […] Quantitative analysis of chemiluminescent signals from Western blots is done with MultiGauge software (Fujifilm).
The LDL-R expression levels were measured by Western Blot, and the expression levels compared.

T1 sequence (Q8NBP7 153-692): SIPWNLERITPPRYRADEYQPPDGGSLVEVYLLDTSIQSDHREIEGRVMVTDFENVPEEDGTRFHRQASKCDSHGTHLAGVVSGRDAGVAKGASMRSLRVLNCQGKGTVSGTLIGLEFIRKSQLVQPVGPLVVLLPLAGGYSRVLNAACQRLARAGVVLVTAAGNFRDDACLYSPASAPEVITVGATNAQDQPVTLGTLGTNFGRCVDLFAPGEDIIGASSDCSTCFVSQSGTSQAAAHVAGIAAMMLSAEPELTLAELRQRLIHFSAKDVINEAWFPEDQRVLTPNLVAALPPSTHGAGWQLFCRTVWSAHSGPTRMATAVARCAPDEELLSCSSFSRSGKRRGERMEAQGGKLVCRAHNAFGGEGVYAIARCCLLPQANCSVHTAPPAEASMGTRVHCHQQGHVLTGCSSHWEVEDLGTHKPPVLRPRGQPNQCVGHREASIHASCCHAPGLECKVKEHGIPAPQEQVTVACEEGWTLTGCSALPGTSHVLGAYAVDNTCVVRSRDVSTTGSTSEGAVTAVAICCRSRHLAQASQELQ

- Percentage of baseline (%) Mean ± SEM (compound 30 nmol/kg): 100 ± 13%
- Percentage of baseline (%) (inhibitor 22 nmol/kg): 157%
Substance: Alirocumab: anti-PCSK9 antibody, control molecule in the hPCSK9 challenge model
